# Results reported in patent US20210069338A1 (published 2021).
# Changes are numbered by the printed parent chain.
# B1: anti-TfR1 antibody (high affinity bivalent anti-TfR antibody, parent antibody without hapten-binding scFvs) (antibody, human IgG1, kappa, V domains shown)
# VH: EVQLQQSGPELVKPGASMKISCKASGYSFTGYTMNWVKQSHGENLEWIGRINPHNGGTDYNQKFKDKAPLTVDKSSNTAYMELLSLTSEDSAVYYCARGYYYYSLDYWGQGTSVTVSS
# VL: QIVLTQSPAIMSASPGEKVTMTCSASSSIRYIHWYQQRPGTSPKRWIYDTSNLASGVPARFSGSGSGTSYSLTISSMEAEDAATYYCHQRNSYPWTFGGGTRLEIKR
# notes: also called antibody TfR1
# B2: anti-TfR2 antibody (bivalent anti-TfR antibody with reduced affinity, parent antibody without hapten-binding scFvs) (antibody, human IgG1, kappa, V domains shown)
# VH: EVQLQQSGPELVKPGASVKMSCKASGYTFTSYVMHWVKQKPGQGLEWIGYVNPYNDDTKYNEKFRGKATLTSDKSSSTAYMELSSLTSEDSAVYYCARSYYYYSMDNWGQGTSVTVSS
# VL: B1 VL with M21V, I32M, R38K, N52E, S75N, N91S, W95F, R102K
# notes: also called antibody TfR2
# B3: TfR1-Bio bispecific antibody (biotinylated payload binding blood brain barrier-shuttle module that binds TfR with high affinity) (bispecific antibody, human IgG1, kappa)
# light: QIVLTQSPAIMSASPGEKVTMTCSASSSIRYIHWYQQRPGTSPKRWIYDTSNLASGVPARFSGSGSGTSYSLTISSMEAEDAATYYCHQRNSYPWTFGGGTRLEIKRTVAAPSVFIFPPSDEQLKSGTASVVCLLNNFYPREAKVQWKVDNALQSGNSQESVTEQDSKDSTYSLSSTLTLSKADYEKHKVYACEVTHQGLSSPVTKSFNRGEC
# heavy: not shown
# notes: also called anti-TfR1 antibody-Bio
# B4: TfR2-Bio bispecific antibody (biotinylated payload binding blood brain barrier-shuttle module that binds TfR with reduced affinity) (bispecific antibody, human IgG1, kappa)
# light: B3 light with M21V, I32M, R38K, N52E, S75N, N91S, W95F, R102K
# heavy: not shown
# notes: also called anti-TfR2-Bio
# B5: TfR1-Dig bispecific antibody (digoxigenylated payload binding blood brain barrier-shuttle module that binds TfR with high affinity) (bispecific antibody, human IgG1, kappa)
# light: B3 light
# heavy: not shown
# notes: also called anti-TfR1 antibody-Dig
# B6: TfR2-Dig bispecific antibody (digoxigenylated payload binding blood brain barrier-shuttle module that binds TfR with reduced affinity) (bispecific antibody, human IgG1, kappa)
# light: B3 light with M21V, I32M, R38K, N52E, S75N, N91S, W95F, R102K
# heavy: not shown
# notes: also called anti-TfR2-antibody Dig
# Target: T1, human transferrin receptor (TfR) on hCMEC/D3 brain endothelial cells (human, UniProt P02786 1-760)
# T1 construct: whole, on cells; also called blood brain barrier receptor
# Test: hCMEC/D3 transwell assay, IgG ELISA of cell lysates and media
# Protocol: We used brain endothelial cells (hCMEC/D3) to investigate cell binding and transcytosis of the shuttle modules as reported herein. […] To investigate cell binding and transcytosis in hCMEC/D3, hCMEC/D3 cells cultured on filter inserts were incubated apically with the bispecific antibody or parent antibody (without hapten-binding scFvs as controls) for 1 h at 37° C. Cell monolayers were washed at RT in serum-free medium apically (400 μl) and basolaterally (1600 μl) three times for 3-5 min. each. All wash volumes were collected to monitor efficiency of removal of the unbound ligand or antibody. Pre-warmed medium was added to the apical chamber and the filters transferred to a fresh 12 well plate (blocked overnight with PBS containing 1% BSA) containing 1600 μl pre-warmed medium. At this point, cells on some of the filters were lysed in 500 μl RIPA buffer (Sigma, Munich, Germany, #R0278) in order to determine specific uptakes. The remaining filters were incubated at 37° C., and samples of cells and of basolateral and apical media were collected at various time points to determine apical and/or basolateral release. The content of antibody in the samples was quantified using a highly sensitive IgG ELISA.
# T1 sequence (P02786 whole entry): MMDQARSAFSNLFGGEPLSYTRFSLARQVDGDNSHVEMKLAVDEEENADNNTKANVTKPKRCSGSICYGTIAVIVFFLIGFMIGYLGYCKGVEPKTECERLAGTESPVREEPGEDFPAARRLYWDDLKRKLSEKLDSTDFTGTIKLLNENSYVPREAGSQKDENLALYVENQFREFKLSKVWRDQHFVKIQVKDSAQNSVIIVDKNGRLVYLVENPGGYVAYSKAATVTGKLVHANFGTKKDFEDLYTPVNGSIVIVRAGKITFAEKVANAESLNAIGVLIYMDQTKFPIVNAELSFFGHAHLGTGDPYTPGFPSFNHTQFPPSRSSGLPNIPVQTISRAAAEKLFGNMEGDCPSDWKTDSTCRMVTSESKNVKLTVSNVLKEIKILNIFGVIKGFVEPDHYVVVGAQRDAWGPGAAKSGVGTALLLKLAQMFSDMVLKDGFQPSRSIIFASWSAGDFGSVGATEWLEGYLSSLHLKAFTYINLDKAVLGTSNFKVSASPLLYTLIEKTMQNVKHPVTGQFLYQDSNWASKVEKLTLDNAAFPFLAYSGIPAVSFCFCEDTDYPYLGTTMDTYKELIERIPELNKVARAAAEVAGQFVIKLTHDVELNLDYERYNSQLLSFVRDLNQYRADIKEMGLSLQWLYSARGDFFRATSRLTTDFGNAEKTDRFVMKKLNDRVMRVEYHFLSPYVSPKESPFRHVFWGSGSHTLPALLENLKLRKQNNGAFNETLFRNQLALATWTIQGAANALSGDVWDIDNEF
row,Binder,binding result
1,B1,binds
2,B2,binds
3,B3,binds
4,B4,binds

# Target: T1, human transferrin receptor (TfR) on …
# Test: FACS on hCMEC/D3 cells, anti-IgG-PE detection, Dig-Cy5 as payload
# Description: To evaluate this functionality of the hapten-binding bispecific antibodies as reported herein, simultaneous cell surface and payload binding was addressed by FACS analyses. For these analyses, cell binding of the blood brain barrier-shuttle module (=bispecific antibody) was detected by phytoerythrin-labeled IgG recognizing secondary antibodies. Simultaneous payload binding was detected by application of a haptenylated fluorescent payload (digoxigenylated Cy5; DIG-Cy5 (see above)).
row,Binder,binding result
1,B5,binds
2,B6,binds
